Experimental data as given in the DeepSol protein solubility set.

Test: soluble on expression in E. coli; label from the status in PepcDB or PDB records

Row | Sequence | soluble on expression in E. coli
1 | MSLGEKSRETSSPWSSTILLVKITSADGLVGYGEAPTTLMTLPVLESMKEVARVFNGKDFFNVERNVFDFYRNSFYLPVSMEATSALSAFEIASWDLIGKQLGTPVYKLLGGEVNQKMRAYANGWYNDCVSPDDFLKKAKEVVKMGFTAMKFDPFGDNYDSITNDGLENARNIVGTLRSELGDKVDLLIEYHGRFSKIAAIKAGMALEEYHPFFYEEPLHPDLDHDLLDLKNYYRVPIALGERVLNKKIFARFISQKLVDIIQPDLTNSGGILEGKKIAAIADGFGIPVAPHNAFGPIQTAATLNLDTTITNFIIQESFEMFWPDWKKKLVSSGYKLENGYFTLTNEPGVCKVNEDIVEKYQVSGMEPFDDKEPPWVVSGTFKPYRQKEGHHHHHH | not soluble
2 | GPGSMTEHICASLVLTRGPEGLQRRLPVRLPLSGKPITIGRAIDNDVVLEMDLIFSSQWHCQMFAQKCEPETSERVEEREAASDPSRCEGRHVDCEGQTEIPVKEQYSLWLVDVGSSNGTFVNGIRVASSAPTPLHHGDVIVLGGMRDVEVGKSLPMEDLPLEIVTWRVAMEGKSEEGFGFVATPPVFLSMEFVISQARQRALGALQDSPDPKVSTTSPLKLPLKRMRHEQETGSNKLYDDGDVTPKRRIREVSYPSGEDRSGGELARRSGTVAAYLDPNEANAWEVTTNSSSDVASTTGLPCPSSKATASRGYCNSDALAEPTKEDARETRVAPAVARETVQ | soluble
3 | MSLILKRVYIDFEMNMPNSKSKRAVFNSDIIAIGAVMYDEKTKNIDKFKSLIRPVSNEELYPHIQELTHISSEELKSAPSYEEVMRKFKKWLGIFSDIKGIYTFGNLDLTCFNNTDMRSAKKNNHPRFVNNIRDLFVDIKEKYINCGMRCMNYISLKNLLEFVNLEFSGDAHDPLNDAYNLFILDEAITNNVDIQNLLIIRDIIRPPFNDINSNLDNCFNKFKESLYKKEGNYNIVDFSVEIIKTVRMYLLTIIDVNIQNLEIMKDISKKMDTIDKLKDIEEGYFYLLEDVYFDMKDVLEDLMLYRMNEDEYKYEIKNIIKMFDEDLDNEKIYINKCNNLNVVNKEGHHHHHH | not soluble
4 | MGSDKIHHHHHHMSIRTRSRKSTPKQPESALRRWLKERHITEVECLVPDITGNARGKIIPADKFSHDYGTRLPEGIFATTVTGDFPDDYYALTSPSDSDMHLRPDASTVRMVPWAADPTAQVIHDCYTKDGQPHELAPRNVLRRVLEAYAEVKLQPVVAPELEFFLVQKNTDPDFPLLPPAGRSGRPETARQSYSIDAVNEFDPILDLMYDYCDAMELDVDTLIHESGAAQLEVNFTHADALSRADQVFLFKRTMREAALRHGVYATFLAKPMETEPGSAMHIHQSLLHAGTGKNVFSGKREGGFSDTFAHYLGGLQKYIPMAMGLLAPNVNSYRRLMFGEVSPSNVLWGFDNRTCGLRVPIDAPQNMRVESRFAGSDANPYLAMAATLACGLLGIREKLEPTAPISSNGKEQGYDLPRSLGEALDELEGCEALKEMLGPRFVRAYISVKRKEYETFFRVISSWEREFLLLNV | not soluble
5 | MSQVMEVVGGKWRLNVLWVINKYQSIRFNQLKREVNGITTIMLTRSLDILITNELVEKVDFQTLPLHVKYQLSSKGKSLMPLLKQINQWGKLYLLEHHHHHH | not soluble
6 | MASEGGNSNGGTSGTGTKSEQDPKEGKRFFNFVFNVNKKITDETEMTQDFMNDLKHYQEFDETVTKCAGYLENVFIPYSSKGSKPEEEAFTRLATALGDFKSFVPQAYTAIFENFSTKMKAAGVSRKCHQALQAHDLRHMKKFHTESYEAFVEQRKKFDESRKKMDQAKADVRDAKTTTAIEKKAICYQLTVDDFDQKTEELIKIIEALPKVKQEYVRDIYLILSKHKQFHADMSKFFAASCVL | not soluble
7 | MYNFFRTVPRANRNEITFYPDYEEEGQKKKKTRSMFSWLGGDSSKKKNKEVLETVSEGLRKIYKQKLLPLEEFHKFHDFHSPALDDPDFDAKPMILLVGQYSTGKTTFIRYLLESDFPGIRIGPEPTTDRFIAVMHGDEEGSIPGNALVVDAKKQFRALSGFGNAFLNRFQCSTLPNQVLESVTIVDTPGILSGEKQRIDRGYDFTGVLEWFAERVDRIILLFDAHKLDISDEFKRCIEALAGNEDKIRIVLNKSDMVDHQQLMRVYGALMWSLGKVFKTPEVSRVYLGSFWDHPLHYDLNRRLFQDEQHDLFQDLQALPRNAALRKLNDLIKRARLAKVHAYIIAELRKQMPSMIGKDKKKKDLIQNLDKIYEQLQREHNISPGDFPDVNKMREKLQTQDFSKFNPLKPKLLEVVDGMLATDIARLMAQIPKEEAAAPAGSNGSADPTVRGGAFSQTTEAETPFGFGRGEGFDKGADEAEWVVSRERTTADSTFESLGPVNGYLSGRAAKEHMVKSKLPNSVLGKVWKLADIDKDGQLDADEFALANYLINLKLEGHEIPSELPKHLIPPSKRGEQDPVYPSLNDNDE | soluble
8 | MGSDKIHHHHHHMLTGHHAPVRAYDAHASSNSSTGFRGRLRLSVATTERQCSMIIAHLSDLHIRETGKPFASGNVDCTARAAQAFERVANMTPRPDMMVVTGDLADSGQIGEYQLLKELTEGLPFPVHLALGNHDIRENFLAVFPEKKGPGGFVQFCVEHDKLRVIGLDTLVEGEGLGRLCSERLSYLRDCLQERPNTSTLILLHHPPFAFGGGIYDAVRLIDGARELGEIITANKQVVRLLCGHHHRAIDCLWNGTLASVAPSVVSSCHLQLGDVRVFKNINEPPAFKLHVLVPESGFVSHNVFVEDFGPAYENIPDPNYQALASMRKQTALAASR | not soluble
9 | WVPHELTENQKNRRFEVSSSLILRNHNEPFLDRIVTCDEKWILYDNRRRSAQWLDQEEAPKHFPKPILHPKKVMVTIWWSAAGLIHYSFLNPGETITSEKYAQEIDEMNQKLQRLQLALVNRKGPILLHDNARPHVAQPTLQKLNELGYEVLPHPPYSPDLLPTNYHVFKHLNNFLQGKRFHNQQDAENAFQEFVESQSTDFYATGINQLISRWQKCVDCNGSYFD | soluble
10 | MIRKATWADAPAIASVHVESWKTTYSGIVPDAYLETLSVGEKQPLWEKVLSQSGHSVFVAEENGRVVGFVSGGPNRAADGPIAKYDGELYAIYLLKEVQGKGLGRQLVQALTRHLAQKGIHSLVVWVLADNPSRGFYERLGGEKVAEERVEIGGKALWEWCYELARRPIDGTVGGLPNRAAA | not soluble
11 | MGSDKIHHHHHHMSDSTTPETIIVIGASSLMAQAFIAKTFTQQAYTDQTVIQQASSQQSKRHDTSPLQIITVSRQNKLILHDLTDNISHHHFSCDYQQASIEQCVTNIAAIAGKVTRIVMCNGILHSKNPQSADSILGPHSANDSTLMPEKRIEDIDALSLEQLFYANSIVPMLWLSALTSLLSLPRHKVAGEQKCVISILSARVGSISDNRLGGWYGYRASKAALNMLIKTTAVEYARRLKRVKLIAFHPGTTDTPLSKPFQANVPAGKLFTPEFVASQLYNIMADIEPNGEASYLDWQGKEISW | not soluble
12 | MTTTLFSSRIIQSALDFDVYKVNMMSAVAALYPDAMVSYKFIVRSEEDLSELLPEVKAEVLKLQDVRFTEDEIAYMKRVAPYLKPEFVEALRHFRFNPQSDVSFHNKTMSDGSSQLRITINGLWKETILYETIIMSIVSEVRSRQRWSDIPFEQFQTVLEDKVRYLKAELERRNITNFKFADMSTRRRFSFQAQRTMLEYLSKELPQCLTGTSNYHLARELDLTPIGTVAHEWFMGHQALVNVRDSQKIALQRWQKMFNGALGIALTDTIGIDAFLKDFDEELSHAYVGVRHDSGCPFTWGEKMIAHYESLGIDPMTKTLVFTDGLNFEQALDICEHFQGRVQVSFGIGTSLANDMGNYVNDQGEAYQPLSIVIKMVTCNGSPVAKISDEPEKAMCEDIFFLMNLKRRFEQPLDLNECRKLIDRLESEGQNYLIDALEHHHHHH | soluble
13 | MSRLGYVMTKASAKNFKVYINGSARGYRNIIINGAKSWNPSPYLNTVTMGNDVKPNFTVSSSNTNKGSVLAVCNTTYYKSNKLIVKNEITLYKGFRSLSNNHKIETVAHEFGHGFGLGHVKTRNAIMLDKGFINKTKPQKDDFNGIKALYKLEHHHHHH | soluble
14 | MGSDKIHHHHHHMLPSQRHAFSIPEDVIYLDAAYMSPIPNIATEAGCDGVLVKAAPWDMTINSYYDEVERVRELAASFVGASIDDVGVIPATSYGIAVAAANVHVTPGSVIMMMDNEHTSHRYAWYELAEKKGATVVTVPRRPDQEWGSALAAAIKGSTVPVSVVAGTIVHWFEGMSVDIEVVADAAHAVGAALVMDGTQWVGAVPFDVSRIRPDFLSFATYKFLLGPYRLAFLYADKKWQEAGKPIEFHSWNRKGGERPDFYLETMPDYLPGARRFDMGERSDFAVLPIAIRSLELLQSWGSTAVFERLVHLNELIWKEAEARGFEGPRKDLRAPHISVIELGQRFRPDFARNLKDNKAFVTVRGTKMRITPHVYNEEHDIRRLFELVDSLTR | not soluble
15 | MKHYTVAINGLPQEFEGFTILHLTDLHAKKYGDQQDKLIRLINRQNFDMVAMTGDFIDKDNPDLEPTLELIQGLAAKPIFFVPGNHEWRYDFSIKSSLEEHGVKILDNKNAELARGDARLWIAGVDDPYLHRDKLEEALHGIADAQPKLLLAHAPNIFKPAAESGVELVLVGHTHGGQVRLPLIGAIVAPGQGLFPQYDYGHFTAGSTNMIVNGGLGESTLPLRFCSRPEIVLVKLVSAPLEHHHHHH | not soluble
16 | DLYFNPRFLADDPQAVADLSRFENGQELPPGTYRVDIYLNNGYMATRDVTFNTGDSEQGIVPCLTRAQLASMGLNTASVAGMNLLADDACVPLTTMVQDATAHLDVGQQRLNLTIPQAFMSNRAR | soluble
17 | MAAPDIKTIVNGINIKQSFAIQNQIRDGGDGELAKPRYQATVVWDSGYHTTSNVTDGQIIIGDEPVHYGGEGMGITPQDLLLTAVGHCLAASYIGGLSAAHINVESLHVHVSGRVNFRAAFAVEPGNPGFEDISVIVEIQTDAPQEQVTALLEKLKHMAPIPDTIMRPVPVNIEIRHQLK | not soluble
18 | MSLKILGIETSCDETGVAIYDEEKGLIANQLYTQIALHADYGGVVPELASRDHIRKTAPLIKAALEEANLTASDIDGIAYTSGPGLVGALLVGATIARSLAYAWNVPAIGVHHMEGHLLAPMLDDNSPHFPFVALLVSGGHTQLVRVDGVGKYEVIGESIDDAAGEAFDKTAKLLGLDYPGGAALSRLAEKGTPNRFTFPRPMTDRAGLDFSFSGLKTFAANTVNQAIKNEGELIEQTKADIAYAFQDAVVDTLAIKCKRALKETGYKRLVIAGGVSANKKLRETLAHLMQNLGGEVFYPQPQFCTDNGAMIAYTGFLRLKQGQHSDLAIDVKPRWAMAELPAIEGHHHHHH | soluble
19 | AQYEDGKQYTTLEKPVAGAPQVLEFFSFFCGHAYQFEEVLHISDNVKKKLPEGVKMTKYHVNFMGGDLGKDLTQAWAVAMALGVEDKVTVPLFEGVQKTQTIRSASDIRDVFINAGIKGEEYDAAWNSFVVKSLVAQQEKAAADVQLRGVPAMFVNGKYQLNPQGMDTSNMDVFVQQYADTVKYLSEKK | soluble
20 | MSLADRLTIGEFSRITHLSIRMLRRYHEQDLLVPAEVDPDTGYRYYSPAQIRPALTVRRFRDLDLPLADLRRFLAAESADGPDDGTAQQVVAAHLRRLEDRLGRTQRAVEVLRELLDPEAERAVTLEELPARRVLAVTLDVPEGAGLDWYDEAMCDVDSAAGERSVLPPGGRYEHTLFTEGHGRATVYVPFEAPLPPEMPGRVRELHLPRRTAAVATHQGRHDDLDLTYGAVGSFAARNDLRSQDLVEEVYLVGPRDTDRPELWRTLVAWLIAPENEGHHHHHH | soluble
21 | MRYWKNSRIKMFEQEDEWISKTQMKKQMNDLQDLGMALTKLSNDTLKKIGLDADLYEAVTAYKKITSNGALKRQAQFIGRLMRDTDPAPIEAFLAKLRGDDAAHNAFLQRVEQARVRLLADDGALTQFMSDFPHADAGKLRTLIRNTKKEQEQNKPPKNFRALFQELKTVMENGDAEI | not soluble
